T1: human ABCC4 (Homo sapiens, UniProt O15439)
T1 construct: expressed in transfected cells
T1 sequence (O15439 1-1325): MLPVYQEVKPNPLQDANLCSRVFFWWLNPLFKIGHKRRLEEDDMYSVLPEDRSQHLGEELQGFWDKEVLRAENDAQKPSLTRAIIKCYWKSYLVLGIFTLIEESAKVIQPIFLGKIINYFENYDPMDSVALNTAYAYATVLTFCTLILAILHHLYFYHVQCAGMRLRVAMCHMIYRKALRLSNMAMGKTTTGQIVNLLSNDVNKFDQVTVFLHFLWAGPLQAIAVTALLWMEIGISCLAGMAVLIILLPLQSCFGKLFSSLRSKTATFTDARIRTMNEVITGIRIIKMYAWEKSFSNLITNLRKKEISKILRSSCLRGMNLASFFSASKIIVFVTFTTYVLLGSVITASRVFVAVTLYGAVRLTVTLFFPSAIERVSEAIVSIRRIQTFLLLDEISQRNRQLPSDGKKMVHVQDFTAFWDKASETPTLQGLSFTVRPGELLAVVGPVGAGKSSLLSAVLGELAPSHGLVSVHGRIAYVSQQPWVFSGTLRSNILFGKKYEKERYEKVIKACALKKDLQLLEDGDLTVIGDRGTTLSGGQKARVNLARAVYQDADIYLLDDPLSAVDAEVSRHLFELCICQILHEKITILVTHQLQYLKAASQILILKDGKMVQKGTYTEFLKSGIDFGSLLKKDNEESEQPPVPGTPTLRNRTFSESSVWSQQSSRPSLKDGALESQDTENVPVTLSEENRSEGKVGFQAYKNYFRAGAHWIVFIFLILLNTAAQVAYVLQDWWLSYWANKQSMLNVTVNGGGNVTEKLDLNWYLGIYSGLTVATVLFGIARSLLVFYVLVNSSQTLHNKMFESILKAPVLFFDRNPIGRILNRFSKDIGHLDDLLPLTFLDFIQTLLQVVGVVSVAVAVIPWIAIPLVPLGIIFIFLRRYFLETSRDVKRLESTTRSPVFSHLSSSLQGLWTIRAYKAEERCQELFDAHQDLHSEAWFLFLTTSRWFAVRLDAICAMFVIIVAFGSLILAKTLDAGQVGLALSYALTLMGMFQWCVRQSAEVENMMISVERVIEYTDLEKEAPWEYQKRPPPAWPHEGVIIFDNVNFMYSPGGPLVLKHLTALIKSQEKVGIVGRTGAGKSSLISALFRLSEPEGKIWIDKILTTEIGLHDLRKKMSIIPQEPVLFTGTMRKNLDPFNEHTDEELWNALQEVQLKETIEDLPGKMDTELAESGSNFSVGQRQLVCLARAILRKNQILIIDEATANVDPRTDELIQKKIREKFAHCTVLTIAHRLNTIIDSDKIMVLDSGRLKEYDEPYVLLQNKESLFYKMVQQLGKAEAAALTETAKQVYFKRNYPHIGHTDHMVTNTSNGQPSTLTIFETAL


What was measured:
human ABCC4 = target: T1, human ABCC4; test: Flow cytometry (FACS) binding to C6 cells stably transfected to express human ABCC4 (different experiment, Table 4); settings: for Human ABCC4 binding: C6 cells stably transfected to express human ABCC4, FACS, different experiment, Table 4; for binding to human ABCC4 expressed on cell surface: Table 4 study, stated in words
Procedure: (§1) Binding titration of recombinant antibodies to ABCC4 transfectants was performed by serial dilution of antibodies from about 666 nM. Diluted antibody in flow cytometry buffer was incubated with cells on ice for 30 min. After 2 washes with flow cytometry buffer, bound antibody was detected with PE-labeled F(ab′)2 fragment goat anti-human IgG (Jackson ImmunoResearch) diluted 1:200 in flow cytometry buffer and incubated with cells for 20 min on ice. After 2 washes with flow cytometry buffer fluorescence was measured on an Attune N×T flow cytometer. Data were analyzed with GraphPad Prism 8.0 software to determine EC50's.
(§2) Human embryonic kidney HEK 293T cells and murine C6 (ATCC CCL-107) were transfected with human or cynomolgus ABCC4 cDNA with C-terminal fused FLAG tag in a pMONO-hygro vector with Lipofectamine 3000 (Invitrogen #L3000001). The cells were treated with 0.2 mg/ml and 0.5 mg/ml hygromycin respectively for about 2 weeks while cultivated in DMEM and 10% FBS with 0.2 mg/ml hygromycin and 0.5 mg/ml hygromycin, respectively. The cells were washed with PBS, and stained with […] of anti-FLAG-PE after fixing and permeablization. Clones expressing ABCC4 were single-cell sorted into 200 μl DMEM with 10% FBS using a BD Aria FACS machine and cultivated in 96 well plates using standard techniques in an incubator at 37° C. and 5% CO 2. Two weeks later clones expressing high levels of ABCC4 were screened and amplified.
(§3) Antibody binding to cells was evaluated by flow cytometry. Murine C6 cells stably transfected to express human or cynomolgus ABCC4 were washed once in flow cytometry buffer (PBS+2% FBS+0.02% sodium azide), resuspended at 2×10^6 cells/mL in flow cytometry buffer, and dispensed into 96-well microtiter plates at 0.1 mL/well. Recombinant antibodies were added to cells at 5 ug/mL for initial binding confirmation, or serially diluted from 100 ug/mL in flow cytometry buffer. After incubating cells on ice for 30 min, cells were washed twice with flow cytometry buffer. Bound antibody was detected with PE-labeled F(ab′)2 fragment goat anti-human IgG (Jackson ImmunoResearch) and evaluated on an Attune N×T flow cytometer. EC50 is calculated to be the concentration of antibody that gives half maximal response.
(§4) In a different experiment, using a different C6.cC4 cell line, detecting the binding of anti-ABCC4 antibodies to C6 cells stably transfected to express human ABCC4 measured by FACS and to C6 cells stably transfected to express cynomolgus ABCC4 measured by FACS, the results set forth in Table 4 were obtained. Negative (−)=Rmax (MFI) below background level. Positive (+)=MFI>3× background level.

cynomolgus ABCC4 = test: Flow cytometry (FACS) binding to C6 cells stably transfected to express cynomolgus ABCC4 (different experiment, different C6.cC4 cell line, Table 4); parameters: key to Cynomolgus ABCC4 binding: Negative (−)=Rmax (MFI) below background level; Positive (+)=MFI>3× background level; settings: for binding to cynomolgus ABCC4 expressed on cell surface: Table 4 study, stated in words; for Cynomolgus ABCC4 binding: different C6.cC4 cell line, C6 cells stably transfected to express cynomolgus ABCC4, FACS, Table 4
Procedure: as §1, §2, §3, §4

| Molecule | Human ABCC4 binding (human ABCC4) | binding to human ABCC4 expressed on cell surface (human ABCC4) | binding to cynomolgus ABCC4 expressed on cell surface (cynomolgus ABCC4) | Cynomolgus ABCC4 binding (cynomolgus ABCC4) |
| --- | --- | --- | --- | --- |
| C4.1075: anti-ABCC4 antibody raised in rats; VH SEQ ID NO: 25, VL SEQ ID NO: 141 (antibody, V domains shown) VH: EVQLKESGPGLVQPSQTLSLTCTVSGLSLISSNINWVRQPPGKGLEWIGAISSGGSAFYNSALKSRLTSSRDTSKSQVFLKMNSLQTEDTAIYFCARGGSEDPDYFDYWGQGVMVTVSS VL: DIVMTQSPSSLAVSAGETVTINCKSSQSLLYSGNQKNYLAWYQQKPGQSPKLLIYWSSTRQSGVPDRFMGSGSGTDFTLTISSVQAEDLAIYYCQQYYDTPLTFGSGTKLEIK | + (Positive (+)=MFI>3× background level) | bind to both human and cynomolgus ABCC4 | bind to both human and cynomolgus ABCC4 | + (Positive (+)=MFI>3× background level) |
| C4.1069: anti-ABCC4 antibody raised in rats; VH SEQ ID NO: 22, VL SEQ ID NO: 144 (antibody, V domains shown) VH: GLVQPSQTLSLTCTVSGFSLNSNGVSWVRQPPGKGLEWIVEISSGGSAFYNSALKSRLSISRDTSKSQVFLKMNSLQTEDTAIYFCTRGGTEDPDYFDYWGQGASVTVSS VL: DIVLTQSPSSLAVSAGETVTINCKSSQSLLYSGNQKNYLAWYQQTPGQSPKLLIYWASTRQSGVPDRFIGSGSGTDFILTITSVQAEDLAIYYCQQYYDTPVTFGSGTKLELK | + (Positive (+)=MFI>3× background level) | bind to both human and cynomolgus ABCC4 | bind to both human and cynomolgus ABCC4 | + (Positive (+)=MFI>3× background level) |
| C4.1073: anti-ABCC4 antibody raised in rats; VH SEQ ID NO: 24, VL SEQ ID NO: 146 (antibody, V domains shown) VH: EVQMKESGPGLVQPSQTLSLTCTVSGFSLTSYHVHWVRQPPGKGLEWMGVMWSDGDTSYNSALKSRLSINRDTSQSRVFLKMNSLQTEDTSTYYCARDRDVLYYDGDFSPFVMDAWGQGASVTVSS VL: DIQMTQSPSNLAASPGESVSINCKASKSISKFLAWYQQKSGKANKLLIYSASTLQSGTPSRFSGSGSGTDFTLTIRNLEPEDFGLYYCQQHNEYPLTFGSGTKLEIK | + (Positive (+)=MFI>3× background level) | bind to both human and cynomolgus ABCC4 | bind to both human and cynomolgus ABCC4 | + (Positive (+)=MFI>3× background level) |
| C4.957: anti-ABCC4 antibody raised in rats; VH SEQ ID NO: 8, VL SEQ ID NO: 127 (antibody, V domains shown) VH: EVQLKESGPGLVQPSQTLSLTCTVSGFSLTNYGVSWVRQPPGKGLEWIGAIWSGGSTGYNSALKSRLSISRDTSKSQVLLKMNSLQTEDTAMYFCARSGVEGPPFDYWGQGASVTVSS VL: AIQVTQSPTSLSASLGDRVTLTCRASQDINNKMAWYQQKPGEVPQLLIYYASTLQSGTPSRFSGSGSGTDFSFTISHLQSEDFATYYCLQGYSLYTFGAGTKLELK | + (Positive (+)=MFI>3× background level) | bind to both human and cynomolgus ABCC4 | bind to both human and cynomolgus ABCC4 | + (Positive (+)=MFI>3× background level) |
| C4.956: anti-ABCC4 antibody raised in rats; VH SEQ ID NO: 7, VL SEQ ID NO: 127 (antibody, V domains shown) VH: QLKESGPGLVKPSQSLSLTCSVTGYTITSGYDWTWLRKFPGNKMEWMGYISYSGFTNYNPSLRSRISITRDTSKNQFFLQLNSVTAEDTATYFCTRTRGYNPFPYWGQGTLVTVSS VL: AIQVTQSPTSLSASLGDRVTLTCRASQDINNKMAWYQQKPGEVPQLLIYYASTLQSGTPSRFSGSGSGTDFSFTISHLQSEDFATYYCLQGYSLYTFGAGTKLELK | + (Positive (+)=MFI>3× background level) |  |  | − |
| C4.1143: anti-ABCC4 antibody raised in rats; VH SEQ ID NO: 31, VL SEQ ID NO: 148 (antibody, V domains shown) VH: EVQLVESDGGLLQPGRSLKLSCAASGFTFSDFYMAWVRQAPTKGLEWIATISHDGRNTYYRDSVKGRFTISRDNAKRTLYLEMDSLRSEDTATYYCATLTTRYKGVMEAWGQGASVTVSS VL: DVVMTQSPSHLAASPGESVSINCKASKNIYKYLAWYQQKPGKTNKLLIYSGSTLQSGTPSRFSGSGSGSDFTLTIRNLEPEDFGLYYCQHHNEYPPTFGGGTKLEIK | + (Positive (+)=MFI>3× background level) | bind to both human and cynomolgus ABCC4 | bind to both human and cynomolgus ABCC4 | + (Positive (+)=MFI>3× background level) |
| C4.1164: anti-ABCC4 antibody raised in rats; VH SEQ ID NO: 36, VL SEQ ID NO: 153 (antibody, V domains shown) VH: EVQLVESDGGLVQPGRSLKLSCAASGFTFSDYYMAWVRQAPTKGLYWVASISYDGSTTYYRDSVKGRFTISRDNAKSTLYLQMGSLRSEDTATYYCARLSIRYKGVMDAWGRGASVTVS VL: DIQMTQSPSNLAASPGESVSINCKASETIYKYLAWYQQKPGRTNKLLIYSGSTLQSGTPSRFSGSGSGTDFTLTIRNLEPEDFGRYYCQHHVEYPPTFGAGTKLELK | + (Positive (+)=MFI>3× background level) | bind to both human and cynomolgus ABCC4 | bind to both human and cynomolgus ABCC4 | + (Positive (+)=MFI>3× background level) |

— patent US20240010747A1, “ANTI-MRP4 (ENCODED BY ABCC4 GENE) ANTIBODIES AND USES THEREOF” (Kenjockety Biotechnology, Inc., priority 2020, published 2024)
